Reference: the Immune Epitope Database (IEDB)
Blank lines part the entries; values can stand above or below the sequence they belong to.

What was measured:
HLA-B*53:01 = test: IEDB peptide-MHC binding, purified MHC/competitive/radioactivity; filed as Kd, often an IC50 or EC50 that approximates it; ≥ and ≤ were set here for values at or beyond the usual limits of such assays
HLA-B*57:01 [1] = test: as above
HLA-B*58:01 [2] = test: as above
HLA-B*15:01 [3] = test: IEDB peptide-MHC binding, purified MHC/competitive/fluorescence; filed as Kd, often an IC50 or EC50 that approximates it; ≥ and ≤ were set here for values at or beyond the usual limits of such assays
HLA-B*40:01 [4] = test: as above
HLA-B*08:01 = test: IEDB peptide-MHC binding, purified MHC/competitive/fluorescence; ≥ and ≤ were set here for values at or beyond the usual limits of such assays
HLA-B*48:01 = test: IEDB peptide-MHC binding, purified MHC/direct/fluorescence; filed as Kd, often an IC50 or EC50 that approximates it; ≥ and ≤ were set here for values at or beyond the usual limits of such assays; conditions: source organism: Escherichia coli O157:H7
HLA-A*02:01 [5] = test: as above
HLA-B*57:01 [6] = test: as above
HLA-A*31:01 = test: as above; conditions: source organism: Escherichia coli O157:H7
HLA-A*68:02 = test: as above; conditions: source organism: Escherichia coli O157:H7
HLA-A*11:01 = test: as above; conditions: source organism: Escherichia coli O157:H7
HLA-B*18:01 = test: as above; conditions: source organism: Escherichia coli O157:H7
HLA-A*01:01 = test: as above
HLA-B*27:05 = test: as above
HLA-B*15:17 [7] = test: as above
HLA-A*69:01 [8] = test: as above; conditions: source organism: Escherichia coli O157:H7
HLA-B*07:02 [9] = test: as above
HLA-B*40:01 [10] = test: as above; conditions: source organism: Escherichia coli O157:H7
HLA-B*58:01 [11] = test: as above
HLA-B*35:01 [12] = test: IEDB peptide-MHC binding, purified MHC/competitive/radioactivity; filed as Kd, often an IC50 or EC50 that approximates it; ≥ and ≤ were set here for values at or beyond the usual limits of such assays
HLA-A*24:02 [13] = test: as above; conditions: source organism: Dengue virus 2 Jamaica/1409/1983
HLA-B*07:02 [14] = test: IEDB peptide-MHC binding, purified MHC/competitive/fluorescence; filed as Kd, often an IC50 or EC50 that approximates it; ≥ and ≤ were set here for values at or beyond the usual limits of such assays
HLA-A*02:01 [15] = test: IEDB peptide-MHC binding, purified MHC/competitive/fluorescence; ≥ and ≤ were set here for values at or beyond the usual limits of such assays
HLA-A*24:02 [16] = test: as above
HLA-B*07:02 [17] = test: as above
HLA-A*02:01 [18] = test: IEDB peptide-MHC binding, purified MHC/competitive/fluorescence; filed as Kd, often an IC50 or EC50 that approximates it; ≥ and ≤ were set here for values at or beyond the usual limits of such assays
HLA-A*02:19 = test: as above
HLA-A*69:01 [19] = test: as above; conditions: source organism: Human immunodeficiency virus 1
HLA-A*29:02 [20] = test: as above
HLA-A*02:03 = test: as above; conditions: source organism: Human immunodeficiency virus 1
HLA-B*15:17 [21] = test: as above; conditions: source organism: Human immunodeficiency virus 1
HLA-A*29:02 [22] = test: IEDB peptide-MHC binding, purified MHC/direct/fluorescence; filed as Kd, often an IC50 or EC50 that approximates it; ≥ and ≤ were set here for values at or beyond the usual limits of such assays; conditions: source organism: Escherichia coli O157:H7
HLA-B*44:02 = test: as above; conditions: source organism: Escherichia coli O157:H7
HLA-B*46:01 = test: as above; conditions: source organism: Escherichia coli O157:H7
HLA-A*03:01 = test: as above
HLA-B*35:01 [23] = test: IEDB peptide-MHC binding, purified MHC/competitive/fluorescence; filed as Kd, often an IC50 or EC50 that approximates it; ≥ and ≤ were set here for values at or beyond the usual limits of such assays; conditions: source organism: Bacillus anthracis str. A2012
HLA-B*51:01 = test: as above; conditions: source organism: Bacillus anthracis str. A2012
HLA-B*15:01 [24] = test: IEDB peptide-MHC binding, purified MHC/direct/fluorescence; filed as Kd, often an IC50 or EC50 that approximates it; ≥ and ≤ were set here for values at or beyond the usual limits of such assays; conditions: source organism: Bacillus anthracis
HLA-A*32:01 = test: IEDB peptide-MHC binding, purified MHC/competitive/radioactivity; filed as Kd, often an IC50 or EC50 that approximates it; ≥ and ≤ were set here for values at or beyond the usual limits of such assays; conditions: source organism: Dengue virus 3 Martinique/1243/1999
HLA-B*15:01 [25] = test: IEDB peptide-MHC binding, purified MHC/competitive/fluorescence; ≥ and ≤ were set here for values at or beyond the usual limits of such assays; conditions: source organism: Zaire ebolavirus
HLA-A*02:12 = test: IEDB peptide-MHC binding, purified MHC/competitive/fluorescence; filed as Kd, often an IC50 or EC50 that approximates it; ≥ and ≤ were set here for values at or beyond the usual limits of such assays; conditions: source organism: Francisella tularensis subsp. holarctica OSU18
[26] = source organism: Dengue virus 3 Martinique/1243/1999
[27] = source organism: Escherichia coli O157:H7 str. EDL933
[28] = source organism: Zaire ebolavirus
[29] = source organism: Yersinia pestis CO92
[30] = source organism: Escherichia coli O157:H7
[31] = source organism: Dengue virus 2 Jamaica/1409/1983
[32] = source organism: Dengue virus 4 Philippines/H241/1956
[33] = source organism: Vaccinia virus WR
[34] = source organism: Human immunodeficiency virus 1
[35] = source organism: Bacillus anthracis str. A2012
[36] = source organism: Dengue virus 1 Brazil/97-11/1997
[37] = source organism: Sudan ebolavirus
[38] = source organism: Bacillus anthracis
[39] = source organism: Entamoeba histolytica HM-1:IMSS

Sequence: AAVEDEDFW
Kd (HLA-B*53:01; [26]): 334 nM
Kd (HLA-B*57:01 [1]; [26]): 1110 nM
Kd (HLA-B*58:01 [2]; [26]): 112 nM

Sequence: ASSGMLWMAE
Kd (HLA-B*57:01 [1]; [26]): ≥ 29300 nM
Kd (HLA-B*58:01 [2]; [26]): 2270 nM

Kd (HLA-B*15:01 [3]; [27]): 265 nM
Kd (HLA-B*40:01 [4]; [27]): 3210 nM
Sequence: FERGVINVF

Sequence: FEVKKRDGV
IC50 (HLA-B*08:01; [28]): ≥ 158000 nM

Sequence: GELIFSHNL
Kd (HLA-B*15:01 [3]; [29]): 3150 nM
Kd (HLA-B*40:01 [4]; [29]): 7 nM

Kd (HLA-B*48:01): ≥ 20000 nM
Kd (HLA-A*02:01 [5]; [30]): ≥ 20000 nM
Kd (HLA-B*57:01 [6]; [30]): ≥ 20000 nM
Kd (HLA-A*31:01): ≥ 20000 nM
Kd (HLA-A*68:02): ≥ 20000 nM
Kd (HLA-A*11:01): ≥ 20000 nM
Kd (HLA-B*18:01): 193 nM
Kd (HLA-A*01:01; [30]): ≥ 20000 nM
Kd (HLA-B*27:05; [30]): ≥ 20000 nM
Kd (HLA-B*15:17 [7]; [30]): ≥ 20000 nM
Kd (HLA-A*69:01 [8]): ≥ 20000 nM
Kd (HLA-B*07:02 [9]; [30]): ≥ 20000 nM
Kd (HLA-B*40:01 [10]): ≥ 20000 nM
Kd (HLA-B*58:01 [11]; [30]): ≥ 20000 nM
Sequence: HEVHAVWPG

Sequence: IAASIILEF
Kd (HLA-B*53:01; [31]): 26.1 nM
Kd (HLA-B*35:01 [12]; [31]): 22 nM
Kd (HLA-A*24:02 [13]): 475 nM
Kd (HLA-B*58:01 [2]; [31]): 7.03 nM

Sequence: IAVSTANIF
Kd (HLA-B*57:01 [1]; [32]): 407 nM
Kd (HLA-B*35:01 [12]; [32]): 151 nM

Sequence: KTRTNDWDF
Kd (HLA-B*57:01 [1]; source organism: Dengue virus 2 Peru/IQT2913/1996): 6.54 nM

Sequence: KTSIGLICVI
Kd (HLA-B*57:01 [1]; [26]): 213 nM

Sequence: LPFERATV
Kd (HLA-B*07:02 [14]; source organism: Influenza A virus (A/swine/Italy/2/1979(H1N1))): 10.5 nM

Sequence: LPWTKISET
IC50 (HLA-A*02:01 [15]; [33]): ≥ 405000 nM
IC50 (HLA-B*08:01; [33]): ≥ 86800 nM
IC50 (HLA-A*24:02 [16]; [33]): 66700 nM
IC50 (HLA-B*07:02 [17]; [33]): ≥ 81600 nM

Sequence: LTFGWCFKL
Kd (HLA-A*02:01 [18]; [34]): 152 nM
Kd (HLA-A*02:19; [34]): 755 nM
Kd (HLA-A*69:01 [19]): 46.5 nM

Sequence: LWNPYEWYQ
Kd (HLA-A*29:02 [20]; [35]): 520 nM

Sequence: LYNTVATLY
Kd (HLA-A*02:01 [18]; [34]): 1160 nM
Kd (HLA-A*02:03): 570 nM
Kd (HLA-B*15:17 [21]): ≥ 20000 nM

Kd (HLA-B*48:01): ≥ 20000 nM
Kd (HLA-B*57:01 [6]; [30]): ≥ 20000 nM
Kd (HLA-A*11:01): ≥ 20000 nM
Kd (HLA-B*18:01): ≥ 20000 nM
Kd (HLA-A*01:01; [30]): ≥ 20000 nM
Kd (HLA-B*27:05; [30]): ≥ 20000 nM
Kd (HLA-A*29:02 [22]): ≥ 20000 nM
Kd (HLA-A*69:01 [8]): ≥ 20000 nM
Kd (HLA-B*44:02): ≥ 20000 nM
Kd (HLA-B*46:01): ≥ 20000 nM
Kd (HLA-A*03:01; [30]): ≥ 20000 nM
Kd (HLA-B*40:01 [10]): ≥ 20000 nM
Kd (HLA-B*58:01 [11]; [30]): ≥ 20000 nM
Sequence: MLKLRQARL

Sequence: MNHKNKFMA
IC50 (HLA-A*02:01 [15]; [28]): ≥ 143000 nM
IC50 (HLA-B*08:01; [28]): 19900 nM

Sequence: MPLKKQILF
Kd (HLA-B*35:01 [23]): ≤ 0.1 nM
Kd (HLA-B*51:01): 130 nM
Kd (HLA-B*07:02 [14]; [35]): 279 nM

Sequence: MSSEGAWKQI
Kd (HLA-B*57:01 [1]; [36]): 231 nM
Kd (HLA-B*58:01 [2]; [36]): 786 nM

Sequence: RLDRPHTPQ
IC50 (HLA-A*02:01 [15]; [37]): ≥ 88500 nM
IC50 (HLA-B*07:02 [17]; [37]): 28500 nM

Sequence: RTIQGQRFW
Kd (HLA-B*15:01 [24]): ≥ 20000 nM
Kd (HLA-A*02:01 [5]; [38]): ≥ 20000 nM
Kd (HLA-B*57:01 [6]; [38]): ≥ 20000 nM
Kd (HLA-A*01:01; [38]): ≥ 20000 nM
Kd (HLA-B*27:05; [38]): ≥ 20000 nM
Kd (HLA-B*15:17 [7]; [38]): ≥ 20000 nM
Kd (HLA-A*03:01; [38]): ≥ 20000 nM
Kd (HLA-B*07:02 [9]; [38]): ≥ 20000 nM
Kd (HLA-B*58:01 [11]; [38]): ≥ 20000 nM

Sequence: RVWIEDNPW
Kd (HLA-B*57:01 [1]; [26]): 49.6 nM
Kd (HLA-A*32:01): 71.9 nM
Kd (HLA-B*58:01 [2]; [26]): 2.11 nM

Sequence: SLFLPKLVV
IC50 (HLA-A*02:01 [15]; [28]): 200 nM
IC50 (HLA-B*08:01; [28]): ≥ 293000 nM
IC50 (HLA-A*24:02 [16]; [28]): 45400 nM

Sequence: SMFYGIFPS
Kd (HLA-A*02:01 [18]; [39]): 0.2 nM
Kd (HLA-A*02:19; [39]): 285 nM

Sequence: SVGHMMVIF
IC50 (HLA-B*15:01 [25]): 10500 nM
IC50 (HLA-A*02:01 [15]; [28]): 18600 nM
IC50 (HLA-A*24:02 [16]; [28]): 2410 nM
IC50 (HLA-B*07:02 [17]; [28]): ≥ 277000 nM

Sequence: SVYSWAIML
Kd (HLA-A*02:01 [18]; source organism: Francisella tularensis subsp. holarctica OSU18): 17.5 nM
Kd (HLA-A*02:12): 2320 nM

Sequence: TVEGIGHHY
Kd (HLA-A*29:02 [20]; source organism: Shigella sonnei Ss046): 36 nM

Sequence: VPKLLLWFN
IC50 (HLA-A*24:02 [16]; source organism: Variola virus): 9710 nM
IC50 (HLA-B*07:02 [17]; source organism: Variola virus): ≥ 810000 nM

Sequence: WMSSEGAWKQ
Kd (HLA-B*58:01 [2]; [36]): 7760 nM

Sequence: YETLVGLAI
Kd (HLA-B*40:01 [4]; source organism: Salmonella enterica subsp. enterica serovar Typhi): 4 nM

Sequence: YRHILRSQG
IC50 (HLA-B*08:01; [28]): ≥ 171000 nM
